Experimental data as given in patent US20160194639.

Target: α2-antiplasmin

B1: endogenous plasmin of mouse brain slices (protein)
chain: VYLSECKTGIGNGYRGTMSRTKSGVACQKWGATFPHVPNYSPSTHPNEGLEENYCRNPDNDEQGPWCYTTDPDKRYDYCNIPECEEECMYCSGEKYEGKISKTMSGLDCQAWDSQSPHAHGYIPAKFPSKNLKMNYCRNPDGEPRPWCFTTDPTKRWEYCDIPRCTTPPPPPSPTYQCLKGRGENYRGTVSVTVSGKTCQRWSEQTPHRHNRTPENFPCKNLEENYCRNPDGETAPWCYTTDSQLRWEYCEIPSCESSASPDQSDSSVPPEEQTPVVQECYQSDGQSYRGTSSTTITGKKCQSWAAMFPHRHSKTPENFPDAGLEMNYCRNPDGDKGPWCYTTDPSVRWEYCNLKRCSETGGSVVELPTVSQEPSGPSDSETDCMYGNGKDYRGKTAVTAAGTPCQGWAAQEPHRHSIFTPQTNPRAGLEKNYCRNPDGDVNGPWCYTTNPRKLYDYCDIPLCASASSFECGKPQVEPKKCPGRVVGGCVANPHSWPWQISLRTRFTGQHFCGGTLIAPEWVLTAAHCLEKSSRPEFYKVILGAHEEYIRGLDVQEISVAKLILEPNNRDIALLKLSRPATITDKVIPACLPSPNYMVADRTICYITGWGETQGTFGAGRLKEAQLPVIENKVCNRVEYLNNRVKSTELCAGQLAGGVDSCQGDSGGPLVCFEKDKYILQGVTSWGLGCARPNKPGVYVRVSRFVDWIEREMRNN
In the case of B1, the “plasmin activity in brain slices (D-VLK chromogenic plasmin substrate assay)” value is reported as “addition of the plasmin inhibitor α2-antiplasmin (Bajou et al., 2008) inhibited this activity”.
